B1: TRAF2: TNF receptor associated factor 2, human adaptor protein expressed from pcDNA3 (protein, UniProt Q12933 1-501, looked up)
chain: MAAASVTPPGSLELLQPGFSKTLLGTKLEAKYLCSACRNVLRRPFQAQCGHRYCSFCLASILSSGPQNCAACVHEGIYEEGISILESSSAFPDNAARREVESLPAVCPSDGCTWKGTLKEYESCHEGRCPLMLTECPACKGLVRLGEKERHLEHECPERSLSCRHCRAPCCGADVKAHHEVCPKFPLTCDGCGKKKIPREKFQDHVKTCGKCRVPCRFHAIGCLETVEGEKQQEHEVQWLREHLAMLLSSVLEAKPLLGDQSHAGSELLQRCESLEKKTATFENIVCVLNREVERVAMTAEACSRQHRLDQDKIEALSSKVQQLERSIGLKDLAMADLEQKVLEMEASTYDGVFIWKISDFARKRQEAVAGRIPAIFSPAFYTSRYGYKMCLRIYLNGDGTGRGTHLSLFFVVMKGPNDALLRWPFNQKVTLMLLDQNNREHVIDAFRPDVTSSSFQRPVNDMNIASGCPLFCPVSKMEAKNSYVRDDAIFIKAIVDLTGL
modifications: full-length
notes: TNF receptor associated factor 2, human adaptor protein expressed from pcDNA3
B2: TRAF1: TNF receptor associated factor 1, adaptor protein overexpressed in 293T cells from pcDNA3 (protein, UniProt Q13077 1-416, looked up)
chain: MASSSGSSPRPAPDENEFPFGCPPTVCQDPKEPRALCCAGCLSENPRNGEDQICPKCRGEDLQSISPGSRLRTQEKAHPEVAEAGIGCPFAGVGCSFKGSPQSVQEHEVTSQTSHLNLLLGFMKQWKARLGCGLESGPMALEQNLSDLQLQAAVEVAGDLEVDCYRAPCSESQEELALQHFMKEKLLAELEGKLRVFENIVAVLNKEVEASHLALATSIHQSQLDRERILSLEQRVVELQQTLAQKDQALGKLEQSLRLMEEASFDGTFLWKITNVTRRCHESACGRTVSLFSPAFYTAKYGYKLCLRLYLNGDGTGKRTHLSLFIVIMRGEYDALLPWPFRNKVTFMLLDQNNREHAIDAFRPDLSSASFQRPQSETNVASGCPLFFPLSKLQSPKHAYVKDDTMFLKCIVETST
modifications: full-length
notes: TNF receptor associated factor 1, adaptor protein overexpressed in 293T cells from pcDNA3

Target: T1, CD40 (Homo sapiens, UniProt P25942)
T1 construct: expressed in transfected cells; host or cells: HEK 293T
Assay: Recruitment assay in intact cells: CD40 and TRAF co-expressed in 293T cells, anti-CD40 capture ELISA of lysate
Format: cell-based
Conditions: for interaction with CD40 when signalosome assembly occurred in an intact cell: co-expressed in 293T cells, versus cell lysate
Experimental: In order monitor TNF receptor associated factor 1 (TRAF1) recruitment to the CD40 receptor, in intact cells, CD40 and TRAF1 encoding plasmids generated as described in example 7) were used to co-transfect the human embryonic kidney 293T cells (HEK293 ATTC CRL-1573 over expressing the T antigen) (DuBridge et al 1987). 2×10^5 cells were seeded at into 3.5 cm dishes grown 16 hours at 37° C. and transfected with 1 μg CD40 expression plasmid and 2 μg of an expression plasmid encoding TRAF by the calcium phosphate method (Kingston et al. 1993). The two expression plasmids, TRAF1 plasmid and CD40 plasmid were used for transfection at a ratio greater than 2:1 respectively in order to saturate all the CD40 molecules produced. Twenty-seven hours after transfection, the cells were detached, washed once with ice cold phosphate buffered saline (PBS) and detergent extracted with
180 μl lysis buffer [phosphate buffered saline (PBS) containing a protease inhibitor cocktail (0.16 mM Pefabloc, 105 IU Aprotinin), 1% Triton X100 and 0.1% Na Azide]. Since CD40 has a tendency for ligand independent signaling when expressed at high levels it was not necessary to activate the receptor with DC40 ligand or mimetic anti CD40 antibodies before lysis. This feature is shared by various members of the TNFR gene family (Boldin et al. 1995, Siegel et al. 2000 and Chan et al. 2000). […]
The recruitment of TRAF to CD40 can be quantitatively measured using the assay described in example 1. […] The CD40 bound TRAF concentration was measured as described in example 1. […] The necessary normalization for sample-to-sample variations in the CD40 expression was calculated with the following formula:
[formula] CD40 concentrations were determined with an ELISA employing a monoclonal antibody (solid phase) and a polyclonal anti CD40 antibody (for detection) both specific for the extracellular domain of the receptor. […]

T1 sequence (P25942 21-277): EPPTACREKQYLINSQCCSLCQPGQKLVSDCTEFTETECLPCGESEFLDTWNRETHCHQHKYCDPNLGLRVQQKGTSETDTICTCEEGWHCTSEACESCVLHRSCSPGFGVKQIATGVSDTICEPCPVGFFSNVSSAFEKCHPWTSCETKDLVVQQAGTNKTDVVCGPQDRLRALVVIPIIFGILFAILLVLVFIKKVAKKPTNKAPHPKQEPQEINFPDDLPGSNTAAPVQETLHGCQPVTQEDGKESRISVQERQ

| interaction with CD40 when signalosome assembly occurred in an intact cell | dilution of the original extract up to which recruitment to the CD40 receptor can be detected (CD40 wt co-expressed with TRAF1 in 293T cells, 3 fold serial dilutions of lysate) [fold] | Molecule |
| --- | --- | --- |
| clearly improved sensitivity |  | B1 |
| clearly improved sensitivity | ≤ 243 | B2 |

From patent US7642046B2, “Method for monitoring recruitment of proteins to the intracellular domain of a receptor in intact cells” (priority 2001, dated 2010)
